Consider two molecules from patent US20220403023A1.

Experiment [1] has as its target CD47 on human red blood cells (human) (UniProt Q08722). Briefly: FACS on human red blood cells, goat anti-human IgG-Fc PE.
For experiment [2] the target is unchanged. The experiment in a line: FACS on human red blood cells, goat anti-human IgG-Fc PE; blank (Neg) 232.
Experiment [3] has as its target human CD47 ECD protein (human) (UniProt Q08722). The experiment in a line: ELISA on plate-coated human CD47 ECD (1 µg/mL), goat anti-human IgG-Fc-HRP, OD450.
Experiment [4] concerns the target human CD47 on engineered CHO-K1 cells (human) (UniProt Q08722). The experiment in a line: FACS on CHO-K1 cells expressing human CD47 (CHOK1-huCD47), goat anti-human IgG-Fc PE.
Experiment [5] shares this target. The experiment in a line: competition FACS against human SIRPα-His (1 µg/mL) on CHOK1-huCD47 cells; ligand only 1086.
The target in experiment [6] is cynomolgus monkey CD47 on engineered CHO-K1 cells (cynomolgus monkey). The experiment in a line: FACS on CHO-K1 cells expressing cynomolgus CD47 (CHOK1-cynoCD47), goat anti-human IgG-Fc PE.
The target of experiment [7] is human CD47 ECD protein (human) (UniProt Q08722). The experiment in a line: ELISA on plate-coated human CD47 ECD (1 µg/mL), goat anti-human IgG-Fc-HRP, OD450; blank (Neg) 0.102. For orientation: An ELISA detects its analyte on a solid surface through an enzyme-linked reagent.
For experiment [8] the target is unchanged. The experiment in a line: competition ELISA against human SIRPα-His (1 µg/mL) on plate-coated human CD47 ECD; ligand only 1.438.
Experiment [9] has as its target human CD47 on engineered CHO-K1 cells (human) (UniProt Q08722). The experiment in a line: FACS on CHO-K1 cells expressing human CD47 (CHOK1-huCD47), goat anti-human IgG-Fc PE; blank (Neg) 34.8.
Experiment [10] deals with cynomolgus monkey CD47 on engineered CHO-K1 cells (cynomolgus monkey). The experiment in a line: FACS on CHO-K1 cells expressing cynomolgus CD47 (CHOK1-cynoCD47), goat anti-human IgG-Fc PE; blank (Neg) 47.6.
The target in experiment [11] is human CD47 ECD protein (human) (UniProt Q08722). Briefly: competition ELISA: plate-coated human CD47 ECD (1 µg/mL), antibody titrated together with human SIRPα-His (1 µg/mL), bound SIRPα detected with anti-His-HRP.
For experiment [12], the target named is human CD47 on engineered CHO-K1 cells (human) (UniProt Q08722). The experiment in a line: competition FACS: CHO-K1 cells expressing human CD47, antibody titrated together with human SIRPα-His (1 µg/mL), bound SIRPα detected with anti-His-biotin and streptavidin-PE.

cynomolgus monkey CD47 on engineered CHO-K1 cells (cynomolgus monkey), sequence (chain, as listed by the source, change not shown): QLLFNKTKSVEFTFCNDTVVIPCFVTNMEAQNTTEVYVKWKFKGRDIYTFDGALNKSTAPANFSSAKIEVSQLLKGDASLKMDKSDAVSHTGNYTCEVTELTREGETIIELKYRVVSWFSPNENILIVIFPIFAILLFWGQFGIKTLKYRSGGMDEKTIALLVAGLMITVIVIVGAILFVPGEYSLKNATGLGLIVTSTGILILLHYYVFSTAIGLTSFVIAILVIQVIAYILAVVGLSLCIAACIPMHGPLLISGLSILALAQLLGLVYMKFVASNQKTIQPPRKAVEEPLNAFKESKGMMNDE

B1: W345-BMK4.uIgG4.SPK (antibody, from another filing, V domains shown)
VH: QVQLQESGPGLVKPSGTLSLTCAVSGVSIRSINWWNWVRQPPGKGLEWIGEIYHSGSTNYNPSLKSRVTISVDKSKNQFSLKLNSVTAADTAVYYCARDGGIAVTDYYYYGLDVWGQGTTVTVSS
VL: EIVLTQSPATLSLSPGERATLSCRASESVSSNLAWYQQKPGQAPRLLIYGAFNRATGIPARFSGSGSGTDFTLTISSLEPEDFAVYYCQQRSDWFTFGGGTKVEIK
Usually EC50 stands for the concentration that produces a half-maximal response. In general, IC50 refers to the midpoint of a concentration-inhibition curve. Regarding B1, the EC50 amounted to 4.82 nM in [1], 0.038 nM in experiment [3], 1.22 nM in experiment [4] and 38.9 nM in experiment [6]. In addition, the values for the Max MFI in [2], in experiment [9] and in experiment [10] were 37600 MFI, 55400 MFI and 30600 MFI, respectively. Moreover, the figures for the Max Inhibit% in experiment [5] and in experiment [8] were 67.4% and 90.5%, respectively. The molecule also had a Min MFI in [5] of 354 MFI. The same molecule came in with a Max OD in experiment [7] of 1.82 OD450. The molecule further gave a Min OD in experiment [8] of 0.137 OD450. Also, the IC50 in [11] was 2.84 nM; in [12] it was 1.92 nM.

B2: W345-BMK1.uIgG4PE.K (antibody, from another filing, V domains shown)
VH: QMQLVQSGAEVKKTGSSVKVSCKASGFNIKDYYLHWVRQAPGQALEWMGWIDPDQGDTEYAQKFQDRVTITRDRSMSTAYMELSSLRSEDTAMYYCNAAYGSSSYPMDYWGQGTTVTV
VL: NIQMTQSPSAMSASVGDRVTITCKASQDIHRYLSWFQQKPGKVPKHLIYRANRLVSGVPSRFSGSGSGTEFTLTISSLQPEDFATYYCLQYDEFPYTFGGGTKVEIK
In the case of B2, the concentration giving a half-maximal response (EC50) in experiment [1] is 0.69 nM; in [3] it was 0.019 nM; in experiment [4] it was 0.43 nM; in experiment [6], 0.34 nM. Also, the Max MFI in experiment [2] worked out at 42800 MFI; in experiment [9], 50000 MFI; in experiment [10], 34200 MFI. Moreover, the Max Inhibit% in [5] was found to be 71.3%; in experiment [8] it was 91.7%. In experiment [5], this molecule came in with a Min MFI of 312 MFI. This molecule also gave a Max OD in experiment [7] of 1.92 OD450. Also, the Min OD in [8] was determined as 0.12 OD450. For the same molecule, the IC50 in experiment [11] was 0.97 nM; in experiment [12], 0.51 nM.
